Test results from US10724034B2, “Genetic encoding of chemical post-translational modification for phage-displayed libraries” (THE GOVERNORS OF THE UNIVERSITY OF ALBERTA, priority 2014, dated 2020).
Ends that are not written are not given here. Glu = glucose (not glutamate); Rha = rhamnose

Tests used:
streptavidin [1] = biological target: streptavidin (UniProt P22629); test: panning/deep seq., Ratio col 1 (Streptavadin/Blank by arithmetic)
streptavidin [2] = biological target: streptavidin (UniProt P22629); test: panning/deep seq., Ratio col 3 (Streptavadin/Bulk amplified by arithmetic)
streptavidin [3] = biological target: streptavidin (UniProt P22629); test: panning/deep seq., Streptavadin rep 1
streptavidin [4] = biological target: streptavidin (UniProt P22629); test: panning/deep seq., Streptavadin rep 3
streptavidin [5] = biological target: streptavidin (UniProt P22629); test: panning/deep seq., Ratio col 2 (Streptavadin/Naive by arithmetic)
streptavidin [6] = biological target: streptavidin (UniProt P22629); test: panning/deep seq., Streptavadin rep 2
[7] = biological target: T1, Bovine carbonic anhydrase II (bovine, UniProt P00921 2-260); test: panning/deep seq., Carbonic rep 3 [Carbonic Anhydrase]
T1 construct: Commercial protein; also called BCA
T1 sequence (P00921 2-260 limits assumed): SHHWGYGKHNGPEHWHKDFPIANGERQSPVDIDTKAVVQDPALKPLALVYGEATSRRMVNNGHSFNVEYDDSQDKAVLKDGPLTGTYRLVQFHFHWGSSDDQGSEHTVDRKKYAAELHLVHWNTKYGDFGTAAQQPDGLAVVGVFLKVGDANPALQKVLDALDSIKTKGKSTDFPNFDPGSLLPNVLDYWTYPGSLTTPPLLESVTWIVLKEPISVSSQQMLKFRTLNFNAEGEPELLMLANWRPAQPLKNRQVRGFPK

[8] = biological target: T1, Bovine carbonic anhydrase II; test: panning/deep seq., Carbonic rep 1 [Carbonic Anhydrase]
[9] = biological target: T1, Bovine carbonic anhydrase II; test: panning/deep seq., Carbonic rep 2 [Carbonic Anhydrase]
[10] = biological target: T1, Bovine carbonic anhydrase II; test: panning/deep seq., Ratio col 2 (Carbonic/Naive by arithmetic) [Carbonic Anhydrase]
[11] = biological target: T1, Bovine carbonic anhydrase II; test: panning/deep seq., Ratio col 3 (Carbonic/Bulk amplified by arithmetic) [Carbonic Anhydrase]
[12] = biological target: T1, Bovine carbonic anhydrase II; test: panning/deep seq., Ratio col 1 (Carbonic/Blank by arithmetic) [Carbonic Anhydrase]
human Galectin-3 = human Galectin-3 (Homo sapiens, UniProt P17931); test: ELISA-like competition assay: inhibition of HRP-Lactose binding to surface-immobilized Galectin-3; conditions: for Times more potent than MeGal at inhibiting HRP-Lac binding to Galectin-3: versus MeGal
human Galectin-3, sequence (P17931 whole entry, the tested form may be a part): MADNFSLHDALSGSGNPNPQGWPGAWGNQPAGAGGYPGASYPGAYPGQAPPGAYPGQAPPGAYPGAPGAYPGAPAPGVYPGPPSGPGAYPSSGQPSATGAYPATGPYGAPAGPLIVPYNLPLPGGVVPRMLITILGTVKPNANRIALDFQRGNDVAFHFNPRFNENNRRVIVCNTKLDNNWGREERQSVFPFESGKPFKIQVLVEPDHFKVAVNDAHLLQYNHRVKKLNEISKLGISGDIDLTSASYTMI
From the text: Using an ELISA-like competition assay (FIGS. 12, 13), the binding activity of these glycopeptides to carbohydrate recognition domain (CRD) of the human Galectin-3 and their ability to compete with binding of Lactose-conjugated horseradish peroxidase (HRP), were validated (FIG. 12). As references, we used known Gal3 ligands, such as lactose, Methyl-β-D-galactopiranoside (MeGal) and tetrasaccharide Lacto-N-Tetraose (LNT).
FIG. 12 illustrates an evaluation of activity of hits identified from genetically-encoded libraries of glycopeptides against […]. The assay measures that inhibitory constant (denoted as Effective concentrations of half-maximal response or EC50) of compounds in the inhibition of the interaction between soluble HRP-Lactose and surface-immobilized Galectin-3.
The competitive activity is quantified as decrease in color development by HRP-lac conjugate bound to Galectin-3 coated at 10 μg/ml concentration on polystyrene 96-well plates.

human Galectin-3 protein = biological target: T2, human Galectin-3 protein (human, UniProt P17931 2-250, limits assumed); test: ELISA-like competition with HRP-Lactose on Galectin-3 coated wells; reference MeGal
T2 construct: also called Gal3
T2 sequence (P17931 2-250 limits assumed): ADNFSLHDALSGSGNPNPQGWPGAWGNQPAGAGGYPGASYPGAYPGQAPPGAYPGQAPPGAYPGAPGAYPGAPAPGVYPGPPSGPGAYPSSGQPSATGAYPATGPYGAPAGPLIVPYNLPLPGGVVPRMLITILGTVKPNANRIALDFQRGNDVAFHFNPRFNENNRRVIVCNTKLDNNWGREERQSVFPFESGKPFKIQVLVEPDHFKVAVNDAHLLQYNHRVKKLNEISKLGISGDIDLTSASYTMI

streptavidin, sequence (P22629 37-163 limits assumed): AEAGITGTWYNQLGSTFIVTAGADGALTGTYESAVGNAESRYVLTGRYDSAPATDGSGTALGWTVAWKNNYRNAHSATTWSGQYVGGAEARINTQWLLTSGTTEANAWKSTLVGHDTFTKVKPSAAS

Row | Substance | Ratio (streptavidin [1]) | Ratio (streptavidin [2]) | copy number (streptavidin [3]) | copy number (streptavidin [4]) | Ratio (streptavidin [5]) | copy number (streptavidin [6]) | copy number [7] | copy number [8] | copy number [9] | Ratio [10] | Ratio [11] | Ratio [12] | further results
1 | Bio-HLRV (peptide) | 373 | 56 | 58 | 168 | 373 | 110 |  |  |  |  |  |  | 
2 | Bio-VHAW (peptide) | 257 | 38 | 73 | 119 | 257 | 39 |  |  |  |  |  |  | 
3 | SA-WYKL (peptide) |  |  |  |  |  |  | 285 | 862 | 1160 | 288 | 121 | 2560 | 
4 | Bio-HMPR (peptide) | 344 | 44 | 118 | 71 | 52 | 121 |  |  |  |  |  |  | 
5 | Bio-HKLN (peptide) | 294 | 12 | 95 | 72 | 88 | 98 |  |  |  |  |  |  | 
6 | Bio-HPSY (peptide) | 448 | 58 | 85 | 104 | 67 | 214 |  |  |  |  |  |  | 
7 | SA-WNTK (peptide) |  |  |  |  |  |  | 228 | 121 | 256 | 19 | 38 | 672 | 
8 | SA-WKQQ (peptide) |  |  |  |  |  |  | 4 | 3 | 2 | 10 | 10 | 10 | 
9 | Bio-PHYN (peptide) | 259 | 58 | 53 | 70 | 21 | 110 |  |  |  |  |  |  | 
10 | SA-WPPY (peptide) |  |  |  |  |  |  | 20 | 17 | 16 | 4 | 5 | 59 | 
11 | SA-WTWL (peptide) |  |  |  |  |  |  | 26 | 43 | 57 | 140 | 21 | 140 | 
12 | Bio-HFTN (peptide) | 532 | 68 | 246 | 98 | 532 | 135 |  |  |  |  |  |  | 
13 | Gal-PAPT: Galactose modified glycopeptide, SEQ ID NO:105 |  |  |  |  |  |  |  |  |  |  |  |  | EC50 (human Galectin-3; FIG. 12, read-out: EC50, inhibition of interaction between soluble HRP-Lactose and surface-immobilized Galectin-3): 14 µM
14 | Rha-IWVR: Rhamnose-peptide conjugate, SEQ ID NO:108 (also: residue 1 conjugated with rhamnose, attachment not given here) |  |  |  |  |  |  |  |  |  |  |  |  | Potency in HRP-Lac competition compared in words with a control (human Galectin-3; comparison with Lactose, MeGal or LNT): in the same order of the LNT; Times better than Lactose at inhibiting HRP-Lac binding to Galectin-3 (human Galectin-3; versus Lactose): 10 times; Times more potent than MeGal at inhibiting HRP-Lac binding to Galectin-3 (human Galectin-3): 400 times
15 | Bio-PFVQ (peptide) | 219 | 99 | 82 | 54 | 219 | 61 |  |  |  |  |  |  | 
16 | Bio-PHLP (peptide) | 271 | 15 | 84 | 123 | 14 | 37 |  |  |  |  |  |  | 
17 | SA-WPPP (peptide) |  |  |  |  |  |  | 15 | 10 | 10 | 6 | 35 | 39 | 
18 | Bio-PLAQ (peptide) | 257 | 33 | 110 | 50 | 38 | 71 |  |  |  |  |  |  | 
19 | Bio-PQMS (peptide) | 1090 | 197 | 282 | 453 | 41 | 248 |  |  |  |  |  |  | 
20 | Glu-SIYG (glucose-modified tetramer peptide) |  |  |  |  |  |  |  |  |  |  |  |  | fold higher potency than MeGal (human Galectin-3 protein): 10 fold
21 | Bio-PSIG (peptide) | 493 | 56 | 145 | 174 | 21 | 125 |  |  |  |  |  |  | 

Row | Substance | Ratio (streptavidin [1]) | Ratio (streptavidin [2]) | copy number (streptavidin [3]) | copy number (streptavidin [4]) | Ratio (streptavidin [5]) | copy number (streptavidin [6]) | copy number [7] | copy number [8] | copy number [9] | Ratio [10] | Ratio [11] | Ratio [12] | further results
22 | Bio-PTHT (peptide) | 500 | 64 | 154 | 118 | 75 | 178 |  |  |  |  |  |  | 
23 | Bio-VHNT (peptide) | 251 | 75 | 29 | 110 | 75 | 87 |  |  |  |  |  |  | 
24 | Bio-PALP (peptide) | 492 | 89 | 125 | 210 | 492 | 108 |  |  |  |  |  |  | 
25 | SA-YQYS (peptide) |  |  |  |  |  |  | 51 | 154 | 194 | 44 | 44 | 443 | 
26 | SA-WTSG (peptide) |  |  |  |  |  |  | 46 | 63 | 30 | 9 | 11 | 154 | 
27 | Bio-YMNN (peptide) | 316 | 142 | 110 | 40 | 24 | 134 |  |  |  |  |  |  | 
28 | SA-QIEH (peptide) |  |  |  |  |  |  | 27 | 35 | 20 | 3 | 2 | 91 | 
29 | SA-WSVM (peptide) |  |  |  |  |  |  | 4 | 3 | 2 | 10 | 10 | 10 | 
30 | SA-YGTH (peptide) |  |  |  |  |  |  | 63 | 50 | 118 | 26 | 7 | 257 | 
31 | Bio-AHPL (peptide) | 920 | 138 | 382 | 333 | 138 | 113 |  |  |  |  |  |  | 
32 | Glu-SIYG: combination of glucose and tetramer peptide, SEQ ID NO:106 (also: residue 1 modified with glucose, attachment not given here) |  |  |  |  |  |  |  |  |  |  |  |  | Times more potent than MeGal at inhibiting HRP-Lac binding to Galectin-3 (human Galectin-3): 10 times
33 | SA-YMSN (peptide) |  |  |  |  |  |  | 53 | 51 | 25 | 143 | 10 | 143 | 
34 | Bio-PVSI (peptide) | 330 | 74 | 75 | 128 | 49 | 94 |  |  |  |  |  |  | 
35 | SA-TAFI (peptide) |  |  |  |  |  |  | 48 | 44 | 58 | 167 | 75 | 167 | 
36 | SA-WLVL (peptide) |  |  |  |  |  |  | 3 | 4 | 4 | 12 | 12 | 12 | 
37 | Bio-GYTQ (peptide) | 682 | 614 | 240 | 147 | 68 | 227 |  |  |  |  |  |  | 
38 | SA-WQQQ (peptide) |  |  |  |  |  |  | 596 | 403 | 422 | 178 | 102 | 1580 | 
39 | SA-WFKL (peptide) |  |  |  |  |  |  | 2 | 3 | 5 | 11 | 11 | 11 | 
40 | SA-WTYW (peptide) |  |  |  |  |  |  | 15 | 18 | 33 | 6 | 8 | 73 | 
41 | SA-WNSK (peptide) |  |  |  |  |  |  | 2 | 3 | 4 | 10 | 10 | 10 | 
42 | Bio-WYPH (peptide) | 402 | 72 | 85 | 127 | 121 | 150 |  |  |  |  |  |  | 
